Laboratory results reported in publication PMC11606445.

Molecular target: PaNOMT9 (Phellodendron amurense)
Test: crystal structure

- stoichiometry N: 2
Substance: PaNOMT9 (enzyme)
